In PMC11053110 (Nature Communications, 2024):

Biological target: T1, GST-tagged IRF3 (human, UniProt Q14653 1-427)
T1 construct: also called GST-IRF3
T1 sequence (looked up): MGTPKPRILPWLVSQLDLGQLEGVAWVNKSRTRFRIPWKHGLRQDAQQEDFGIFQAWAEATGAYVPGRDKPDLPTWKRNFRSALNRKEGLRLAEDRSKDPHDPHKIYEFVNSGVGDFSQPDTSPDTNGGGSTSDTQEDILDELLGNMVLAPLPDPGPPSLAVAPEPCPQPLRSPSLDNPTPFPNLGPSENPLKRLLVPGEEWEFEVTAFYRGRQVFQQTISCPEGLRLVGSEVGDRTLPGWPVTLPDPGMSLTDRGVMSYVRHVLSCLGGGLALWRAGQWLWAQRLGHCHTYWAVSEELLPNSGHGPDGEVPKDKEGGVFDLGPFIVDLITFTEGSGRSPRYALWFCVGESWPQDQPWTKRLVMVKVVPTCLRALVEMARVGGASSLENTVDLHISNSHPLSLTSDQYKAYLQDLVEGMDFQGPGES
Assay: pull-down
Settings: both partners purified

- binding result: binds
B1: His-tagged EGLN1 (enzyme, human, UniProt Q9GZT9 1-426, looked up)
chain: MANDSGGPGGPSPSERDRQYCELCGKMENLLRCSRCRSSFYCCKEHQRQDWKKHKLVCQGSEGALGHGVGPHQHSGPAPPAAVPPPRAGAREPRKAAARRDNASGDAAKGKVKAKPPADPAAAASPCRAAAGGQGSAVAAEAEPGKEEPPARSSLFQEKANLYPPSNTPGDALSPGGGLRPNGQTKPLPALKLALEYIVPCMNKHGICVVDDFLGKETGQQIGDEVRALHDTGKFTDGQLVSQKSDSSKDIRGDKITWIEGKEPGCETIGLLMSSMDDLIRHCNGKLGSYKINGRTKAMVACYPGNGTGYVRHVDNPNGDGRCVTCIYYLNKDWDAKVSGGILRIFPEGKAQFADIEPKFDRLLFFWSDRRNPHEVQPAYATRYAITVWYFDADERARAKVKYLTGEKGVRVELNKPSDSVGKDVF
notes: also called His-EGLN1
